Measurements published in US20220002426A1 (BIOINVENT INTERNATIONAL, published 2022).

Columns and labels:
[1] = target: T1, mTNFRII (Sinobioologicals Cat No. 50128 M08H) (mouse, UniProt P25119 23-258, limits assumed); experiment: blocking ELISA, coated mTNFRII, competitor mTNF-α 2 nM
T1 construct: bought
T1 sequence (looked up): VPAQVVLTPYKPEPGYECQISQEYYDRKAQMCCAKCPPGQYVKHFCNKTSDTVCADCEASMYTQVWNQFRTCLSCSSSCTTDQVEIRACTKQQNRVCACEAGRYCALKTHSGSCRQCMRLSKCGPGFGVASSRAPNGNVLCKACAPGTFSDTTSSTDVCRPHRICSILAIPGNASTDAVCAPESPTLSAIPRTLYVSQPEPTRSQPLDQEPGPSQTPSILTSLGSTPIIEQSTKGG
Experimental: 96-well plates were coated with hTNFRII (Sinobioologicals Cat nr10414-H08H) or mTNFRII (Sinobioologicals Cat No. 50128 M08H) at 2.5 pmol/well in ELISA coating buffer (0.1 M sodium carbonate pH 9.5) and incubated overnight at 4° C. After washing in ELISA wash buffer (PBS with 0.05% Tween20), the plates were incubated under slow agitation for 1 h in room temperature with n-CoDeR® mAbs at 10 μg/ml (one-dose ELISA) or 33 nM and subsequent 1:2 dilutions (titration ELISA) in block buffer containing 0.45% fish gelatin. […] Thereafter, plates were washed. For the human ELISAs, Streptavidin-HRP (Jackson Cat No. 016-030-084) diluted 1:2000 in block buffer were added and again incubated for 1 h at room temperature followed by washes first in ELISA buffer and then in Tris buffer (pH 9.8). The substrate (Super Signal ELISA Pico from Thermo Scientific Cat. No. 37069) were thereafter diluted according to the manufacturers instruction, added to the wells and incubated in darkness for 10 min before reading in a Tecan Ultra. […] After washing, anti-Rabbit-HRP diluted 1:10 000 in block buffer was added and again incubated for 1 h at room temperature. Substrate adding and reading were performed as above.

[2] = target: T2, recombinant mouse TNFR2-Fc protein (Sino Biological) (mouse, UniProt P25119 23-258, limits assumed); experiment: ELISA, coated TNFR2-Fc
T2 construct: bought; also called mTNFR2 protein; mTNFR2; not shown: Fc part of the bought fusion protein; not described
T2 sequence (looked up): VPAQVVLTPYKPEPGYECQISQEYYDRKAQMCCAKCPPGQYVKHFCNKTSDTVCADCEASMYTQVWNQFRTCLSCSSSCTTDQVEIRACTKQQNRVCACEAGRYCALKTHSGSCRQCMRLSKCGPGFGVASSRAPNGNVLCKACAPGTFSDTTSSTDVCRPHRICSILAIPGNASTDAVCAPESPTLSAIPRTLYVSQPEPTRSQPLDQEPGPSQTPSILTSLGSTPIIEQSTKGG
Experimental: 96-well plates (Lumitrac 600 LIA plate, Greiner) were coated overnight at 4° C. with recombinant human or mouse TNFR2-Fc protein (Sino Biological) at 1 pmol/well. After washing, titrated doses of anti-TNFR2 mAbs from 20 μg/ml to 0.1 ng/ml (133 nM to 1 pM) were allowed to bind for 1 hour. Plates were then washed again, and bound antibodies were detected with an anti-human-F(ab)-HRP secondary antibody (Jackson ImmunoResearch) diluted in 50 ng/ml. Super Signal ELISA Pico (Thermo Scientific) was used as substrate and the plates were analyzed using Tecan Ultra Microplate reader.

[3] = target: T3, wild type, full length murine TNFR2 (on cells) (mouse, UniProt P25119 23-474); experiment: FACS, activated mouse CD4+ T cells
T3 construct: whole, on cells; also called mTNFR2; mouse TNFR2
T3 sequence (looked up): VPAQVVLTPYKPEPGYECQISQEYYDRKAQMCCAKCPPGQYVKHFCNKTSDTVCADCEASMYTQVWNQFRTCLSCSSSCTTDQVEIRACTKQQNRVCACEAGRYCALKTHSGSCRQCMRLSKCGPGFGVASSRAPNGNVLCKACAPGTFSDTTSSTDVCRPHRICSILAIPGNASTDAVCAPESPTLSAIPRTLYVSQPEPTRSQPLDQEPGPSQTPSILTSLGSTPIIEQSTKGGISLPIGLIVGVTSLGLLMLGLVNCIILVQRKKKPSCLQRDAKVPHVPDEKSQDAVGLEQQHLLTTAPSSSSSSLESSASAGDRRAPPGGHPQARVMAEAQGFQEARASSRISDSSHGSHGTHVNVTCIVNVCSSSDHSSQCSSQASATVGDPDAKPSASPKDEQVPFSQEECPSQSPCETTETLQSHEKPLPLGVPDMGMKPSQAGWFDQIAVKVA

EC50 [1]: 1.9 nM
EC50 [2]: 0.97 nM
EC50 [3]: 0.072 nM
B1: 003-F10 (antibody, V domains shown)
VH: EVQLLESGGGLVQPGGSLRLSCAASGFTFSDAWMTWVRQAPGKGLEWVSDLSDSGGSTYYADSVKGRFTISRDNSKNTLYLQMNSLRAEDTAVYYCGRLAAGGPVDYWGQGTLVTVSS
VL: QSVLTQPPSASGTPGQRVTISCTGSSSNIGAGYDVHWYQQLPGTAPKLLIYSNNQRPSGVPDRFSGSKSGTSASLAISGLRSEDEADYYCSVWDDSLNSWVFGGGTKLTVLG
notes: also called 3-F10 (mouse)
